From article PMC5314460 (Structure (London, England : 1993), 2017)

T1: SUMO-Rps3 (yeast, UniProt P05750 1-240)
T1 sequence: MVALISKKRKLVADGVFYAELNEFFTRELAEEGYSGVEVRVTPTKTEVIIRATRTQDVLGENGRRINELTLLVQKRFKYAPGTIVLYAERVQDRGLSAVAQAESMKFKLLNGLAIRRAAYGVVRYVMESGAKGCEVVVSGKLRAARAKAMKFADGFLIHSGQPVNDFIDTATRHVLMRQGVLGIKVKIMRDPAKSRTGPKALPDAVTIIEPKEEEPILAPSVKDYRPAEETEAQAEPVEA

T2: Enp1-TPR (residues 154-483) (yeast, UniProt P38333 154-483)
T2 sequence (looked up): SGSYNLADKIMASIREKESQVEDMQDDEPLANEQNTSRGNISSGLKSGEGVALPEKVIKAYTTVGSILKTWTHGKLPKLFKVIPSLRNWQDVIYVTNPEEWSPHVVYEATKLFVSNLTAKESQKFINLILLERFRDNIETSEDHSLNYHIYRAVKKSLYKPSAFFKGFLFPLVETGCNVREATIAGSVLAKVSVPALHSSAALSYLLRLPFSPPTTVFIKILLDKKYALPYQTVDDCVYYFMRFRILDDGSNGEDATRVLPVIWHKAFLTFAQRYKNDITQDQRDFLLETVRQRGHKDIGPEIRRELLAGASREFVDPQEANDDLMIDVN

T3: Enp1 (yeast, UniProt P38333 1-483)
T3 sequence (looked up): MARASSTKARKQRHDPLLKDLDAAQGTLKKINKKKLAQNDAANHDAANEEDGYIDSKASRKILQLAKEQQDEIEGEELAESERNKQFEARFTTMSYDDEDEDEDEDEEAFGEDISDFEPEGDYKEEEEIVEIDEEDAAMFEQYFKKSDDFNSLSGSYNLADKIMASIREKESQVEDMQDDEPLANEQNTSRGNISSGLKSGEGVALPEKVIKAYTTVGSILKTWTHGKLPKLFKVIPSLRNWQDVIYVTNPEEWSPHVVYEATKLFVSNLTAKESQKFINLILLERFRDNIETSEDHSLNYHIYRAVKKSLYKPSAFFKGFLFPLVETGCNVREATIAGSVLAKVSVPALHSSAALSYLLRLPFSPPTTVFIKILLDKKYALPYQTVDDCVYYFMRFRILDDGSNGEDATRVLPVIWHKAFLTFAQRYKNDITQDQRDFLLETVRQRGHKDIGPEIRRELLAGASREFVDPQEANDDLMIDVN

B1: Ltv1-M (residues 185-394) (domain or fragment, yeast, UniProt P34078 185-394, looked up)
chain: DDVVVEDISKKTQLQGDNYGEEEKEDDIFAQLLGSGEAKDEDEFEDEFDEWDIDNVENFEDENYVKEMAQFDNIENLEDLENIDYQADVRRFQKDNSILEKHNSDDEFSNAGLDSVNPSEEEDVLGELPSIQDKSKTGKKKRKSRQKKGAMSDVSGFSMSSSAIARTETMTVLDDQYDQIINGYENYEEELEEDEEQNYQPFDMSAERSD
B2: Ltv1-N (N-terminal 180 residues) (domain or fragment, yeast, UniProt P34078 1-180, looked up)
chain: MSKKFSSKNSQRYVVVHRPHDDPSFYDTDASAHVLVPVSNPNKTSPEADLRKKDVSSTKPKGRRAHVGEAALYGINFDDSEYDYTQHLKPIGLDPENSIFIASKGNEQKVEKKNIEDLFIEPKYRRDEIEKDDALPVFQRGMAKPEYLLHQQDTTDEIRGFKPDMNPALREVLEALEDEA

What was measured:
Experiment in all cases: pull-down
SUMO-Rps3 = biological target: T1, SUMO-Rps3
[1] = biological target: T2, Enp1-TPR (residues 154-483)
Enp1 = biological target: T3, Enp1

Binder | binding result (SUMO-Rps3) | binding result [1] | binding result (Enp1)
B1 | binds | binds | binds
B2 | binds | – | –
